Laboratory results as given in publication PMC13156308.

Columns and labels:
GST-tagged MCM2 (human) = GST-tagged MCM2 (human) (UniProt P49736); experiment: BLI; MCM2 immobilised on Anti-GST biosensors, BLItz, 1x PBS and 0.02% Tween; analyte 0-50.0 nM
[1] = target: full-length strep-tagged POLD3 (human) (UniProt Q15054); experiment: BLI; POLD3 immobilised on Streptavidin (SAX) biosensors, BLItz, 1x PBS and 0.02% Tween
Chain of full-length strep-tagged POLD3 (human) (Q15054 whole entry): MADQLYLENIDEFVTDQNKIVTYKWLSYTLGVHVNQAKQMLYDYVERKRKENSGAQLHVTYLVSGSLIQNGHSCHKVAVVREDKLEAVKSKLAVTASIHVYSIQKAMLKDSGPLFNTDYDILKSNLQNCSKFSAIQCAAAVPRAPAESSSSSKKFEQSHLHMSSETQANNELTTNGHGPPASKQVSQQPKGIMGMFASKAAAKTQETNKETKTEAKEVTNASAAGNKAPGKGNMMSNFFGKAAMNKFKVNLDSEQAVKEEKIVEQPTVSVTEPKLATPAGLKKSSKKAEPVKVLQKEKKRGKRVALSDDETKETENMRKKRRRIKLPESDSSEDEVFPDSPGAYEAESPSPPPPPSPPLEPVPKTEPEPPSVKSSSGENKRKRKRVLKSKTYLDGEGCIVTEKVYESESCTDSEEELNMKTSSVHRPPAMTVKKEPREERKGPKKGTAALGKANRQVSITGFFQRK

Chain of GST-tagged MCM2 (human) (P49736 whole entry): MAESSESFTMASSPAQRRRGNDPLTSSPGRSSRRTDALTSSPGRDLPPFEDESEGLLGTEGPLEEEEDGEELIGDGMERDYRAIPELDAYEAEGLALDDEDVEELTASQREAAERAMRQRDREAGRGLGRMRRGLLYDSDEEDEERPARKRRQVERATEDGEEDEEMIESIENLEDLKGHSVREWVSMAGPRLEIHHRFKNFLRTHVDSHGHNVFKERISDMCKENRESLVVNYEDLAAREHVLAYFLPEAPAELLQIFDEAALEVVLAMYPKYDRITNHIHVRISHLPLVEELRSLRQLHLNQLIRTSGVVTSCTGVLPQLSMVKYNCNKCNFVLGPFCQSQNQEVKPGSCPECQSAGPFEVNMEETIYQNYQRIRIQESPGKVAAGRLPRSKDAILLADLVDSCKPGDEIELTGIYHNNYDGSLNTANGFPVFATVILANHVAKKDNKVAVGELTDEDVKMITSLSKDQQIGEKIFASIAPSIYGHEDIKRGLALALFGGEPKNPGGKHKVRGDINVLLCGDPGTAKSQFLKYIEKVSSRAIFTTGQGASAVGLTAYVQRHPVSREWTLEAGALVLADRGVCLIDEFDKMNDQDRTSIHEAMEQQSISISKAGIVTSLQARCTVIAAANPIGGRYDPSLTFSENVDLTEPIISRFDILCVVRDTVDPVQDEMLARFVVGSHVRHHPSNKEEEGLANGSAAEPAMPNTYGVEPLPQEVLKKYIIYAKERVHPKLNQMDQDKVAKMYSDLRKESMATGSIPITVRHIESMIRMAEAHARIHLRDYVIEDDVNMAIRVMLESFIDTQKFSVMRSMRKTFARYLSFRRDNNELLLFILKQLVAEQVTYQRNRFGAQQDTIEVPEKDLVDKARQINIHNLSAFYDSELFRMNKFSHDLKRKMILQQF

Q: Which results are given for “histone (H3.1-H4)2 tetramer (from UniProt P68431 1-136; P62805 1-103) (complex; other documents disagree on this pair)”?
A: Kd (GST-tagged MCM2 (human)): 2.17 nM; Kd [1]: 2.7 nM
